In patent publication US20130133089A1 (MEDICAL RESEARCH INFRASTRUCTURE AND HEALTH SERVICES FUND OF …, published 2013):
Where a chain is given by its changes, count along the chain named. Names may count otherwise. Where two headings read alike, the source gives them in different places.

Experiments:
[1] = target: long form of human leptin receptor (hLEPR) on BAF/3 or H-49 (HEK-293) cells (human) (UniProt P48357); assay: cell-based or functional assay
[2] = target: Recombinant human leptin binding domain (hLBD) (human) (UniProt P48357); assay: competitive plate binding assay: immobilized hLBD, biotinylated mouse leptin as ligand, mutein as competitor
[3] = target: T1, Recombinant human leptin binding domain (hLBD) (human, UniProt P48357 428-635, biotinylated with Sulfo-NHS-LC-Biotin in the yeast display assays; not labelled when immobilized in the plate binding assay); assay: competitive plate binding assay on immobilized hLBD (FIG. 12C)
T1 construct: CRH2 sub-domain of the leptin receptor; Prepared in the applicants' laboratory; also called soluble human leptin receptor; CHR2
T1 sequence (looked up): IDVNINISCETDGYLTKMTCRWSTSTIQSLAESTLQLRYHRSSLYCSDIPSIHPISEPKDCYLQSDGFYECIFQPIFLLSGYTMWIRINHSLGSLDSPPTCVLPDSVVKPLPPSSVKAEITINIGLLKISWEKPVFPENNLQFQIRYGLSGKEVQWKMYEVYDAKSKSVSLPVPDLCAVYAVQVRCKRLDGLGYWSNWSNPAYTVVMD
Method: (§1) Biotinylated mouse leptin served as the ligand in all competitive experiments and the respective mouse leptin or mouse or human leptin antagonist muteins as competitors. The hLBD was used as the receptor source. Polystyrene 96-well microtiter plates were coated overnight at 4° C. with 100 μl of 40 μM hLBD in PBS pH 7.4. Wells were then washed one time with PBST (PBS containing 0.05 Tween 20) and blocked with PBS containing 3% skim milk for two hours in room temperature. All further incubations were carried out at room temperature. Wells were washed one time with PBST and incubated with different concentrations of un-labeled leptins (50 μl/well) for 30 min and then 50 μl of 62.5 μM of biotinylated mouse leptin were added to each well for another two hours. Then the wells were washed three times with PBST and incubated with 1:30,000 streptavidin-HRP in PBS containing 1 Tween 20 for one hour. Subsequently the wells were washed three times with PBST and the reaction was quantified in 450 nm by microplate reader ELISA Plate Reader ELx808—Bio-Tek Instrument Inc. (Winooski, Vt., USA) using TMB according to manufacturer's instructions.

[4] = target: T1, Recombinant human leptin binding domain …; assay: competitive plate binding assay on immobilized hLBD (FIG. 12D)
Method: as §1

[5] = target: T1, Recombinant human leptin binding domain …; assay: competitive plate binding assay: immobilized hLBD, biotinylated mouse leptin as ligand, mutein as competitor
Method: as §1

[6] = target: long form of human leptin receptor (hLEPR) on BAF/3 or H-49 (HEK-293) cells (human), P48357; assay: cell-based or functional assay
Sequence of long form of human leptin receptor (hLEPR) on BAF/3 or H-49 (HEK-293) cells (human), P48357 (P48357 22-1165): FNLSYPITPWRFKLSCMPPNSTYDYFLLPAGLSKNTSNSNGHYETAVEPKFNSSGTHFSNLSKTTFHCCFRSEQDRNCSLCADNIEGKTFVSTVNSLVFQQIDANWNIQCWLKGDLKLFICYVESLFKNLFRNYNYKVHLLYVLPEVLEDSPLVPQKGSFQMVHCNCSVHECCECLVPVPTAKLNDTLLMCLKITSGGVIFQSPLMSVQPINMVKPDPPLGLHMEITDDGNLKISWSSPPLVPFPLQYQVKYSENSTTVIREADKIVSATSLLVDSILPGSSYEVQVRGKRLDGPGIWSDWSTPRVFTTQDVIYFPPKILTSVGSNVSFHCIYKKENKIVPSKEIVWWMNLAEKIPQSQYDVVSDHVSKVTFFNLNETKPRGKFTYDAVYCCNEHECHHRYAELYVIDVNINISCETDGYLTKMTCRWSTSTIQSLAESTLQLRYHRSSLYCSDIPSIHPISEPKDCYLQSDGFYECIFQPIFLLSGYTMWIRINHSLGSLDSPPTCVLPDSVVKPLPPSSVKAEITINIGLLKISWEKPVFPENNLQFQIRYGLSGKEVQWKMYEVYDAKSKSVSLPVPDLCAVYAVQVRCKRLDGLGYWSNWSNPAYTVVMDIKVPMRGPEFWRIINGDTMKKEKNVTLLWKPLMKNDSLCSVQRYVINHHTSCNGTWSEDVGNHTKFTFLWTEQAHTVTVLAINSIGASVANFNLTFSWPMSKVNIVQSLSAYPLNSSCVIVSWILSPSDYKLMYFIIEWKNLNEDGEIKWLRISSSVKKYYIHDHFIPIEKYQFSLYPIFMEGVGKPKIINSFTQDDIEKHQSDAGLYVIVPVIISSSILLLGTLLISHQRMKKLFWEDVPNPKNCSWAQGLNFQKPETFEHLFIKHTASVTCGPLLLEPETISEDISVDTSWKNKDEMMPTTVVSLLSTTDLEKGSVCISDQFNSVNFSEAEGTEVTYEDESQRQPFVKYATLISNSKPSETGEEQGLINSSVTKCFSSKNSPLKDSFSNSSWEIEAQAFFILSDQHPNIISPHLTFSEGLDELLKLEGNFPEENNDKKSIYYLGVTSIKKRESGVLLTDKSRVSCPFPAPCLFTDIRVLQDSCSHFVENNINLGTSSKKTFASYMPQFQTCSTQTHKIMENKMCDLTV

[7] = target: T1, Recombinant human leptin binding domain …; assay: competitive plate binding assay: immobilized hLBD, biotinylated mouse leptin as ligand, mutein as competitor; remark: listed apart in the source
Method: as §1

[8] = target: T1, Recombinant human leptin binding domain …; assay: competitive plate binding assay on immobilized hLBD
Method: as §1

[9] = target: T1, Recombinant human leptin binding domain …; assay: competitive plate binding assay on immobilized hLBD, representative experiment (FIG. 7D)
Method: as §1

[10] = target: T1, Recombinant human leptin binding domain …; assay: yeast display, flow cytometry titration with biotinylated hLBD (FIG. 4A)
Excerpt: (§2) Those 7 mouse leptin mutants were selected for preparation of respectively mutated leptins expressed in E. coli.

[11] = target: T1, Recombinant human leptin binding domain …; assay: yeast display, flow cytometry titration with biotinylated hLBD (FIG. 4B)
Excerpt: as §2

Sequence of long form of human leptin receptor (hLEPR) on BAF/3 or H-49 (HEK-293) cells (human) (P48357 22-1165): as above

recombinant mouse leptin mutein H7 (K11R, Q34R, T37A, F92C, S97Y, I136V), agonist (from UniProt P41160 22-167) (ligand)
BAF/3 bioassay: fold increase in bioactivity as compared to the WT mouse leptin [1]: 0.5 fold
Luciferase bioassay: fold increase in bioactivity as compared to the WT mouse leptin [1]: 0.3 fold
fold increase in affinity as compared to the WT mouse leptin [2]: 0.83 fold

B1: human leptin super antagonist (SHLA), human leptin D23L/L39A/D40A/F41A (ligand)
chain: VPIQKVQDDTKTLIKTIVTRINLISHTQSVSSKQKVTGAAAIPGLHPILTLSKMDQTLAVYQQILTSMPSQNVIQISNDLENLRDLLHVLAFSKSCHLPWASGLETLDSLGGVLEASGYSTEVVALSRLQGSLQDMLWQLDLSPGC
notes: also called super active human leptin antagonist
fold increase in the affinity due to D23L mutation (against HLA) [3]: 44 fold

B2: pegylated human leptin super antagonist (PEG-SHLA) (ligand)
chain: B1 chain
modifications: mPEG-propionyl-ALD 20 kDa, preferentially on the N-terminal amino group
fold increase in the affinity due to D23L mutation (against PEG-HLA) [4]: 80 fold

B3: mouse leptin antagonist D23G/L39A/D40A/F41A (ligand)
chain: AVPIQKVQDDTKTLIKTIVTRINGISHTQSVSAKQRVTGAAAIPGLHPILSLSKMDQTLAVYQQVLTSLPSQNVLQIANDLENLRDLLHLLAFSKSCSLPQTSGLQKPESLDGVLEASLYSTEVVALSRLQGSLQDILQQLDVSPEC
notes: mature
fold increase in affinity as compared to the WT mouse leptin antagonist [5]: 17.5 fold
BAF/3 bioassay: fold increase in bioactivity as compared to the WT mouse leptin antagonist [6]: 2.5 fold

B4: recombinant mouse leptin mutein H30 (D23H), agonist (ligand)
chain: B3 chain with G24H, A40L, A41D, A42F
notes: mature
fold increase in affinity as compared to the WT mouse leptin [7]: 35 fold
BAF/3 bioassay: fold increase in bioactivity as compared to the WT mouse leptin [6]: 0.3 fold
Luciferase bioassay: fold increase in bioactivity as compared to the WT mouse leptin [6]: 0.6 fold

B5: mouse leptin antagonist D23K/L39A/D40A/F41A (ligand)
chain: B3 chain with G24K
notes: mature
fold increase in affinity as compared to the WT mouse leptin antagonist [5]: 19 fold
BAF/3 bioassay: fold increase in bioactivity as compared to the WT mouse leptin antagonist [6]: 3.7 fold

B6: mouse leptin antagonist H16 (D23G, G112S + L39A/D40A/F41A) (ligand)
chain: B3 chain with G113S
notes: mature; also called H16 (antagonist)
fold increase in affinity as compared to the WT mouse leptin antagonist [7]: 11 fold

B7: recombinant mouse leptin mutein H16 (D23G, G112S), agonist (ligand)
chain: B3 chain with A40L, A41D, A42F, G113S
notes: mature
fold increase in affinity as compared to the WT mouse leptin [7]: 20.3 fold
BAF/3 bioassay: fold increase in bioactivity as compared to the WT mouse leptin [6]: 0.8 fold
Luciferase bioassay: fold increase in bioactivity as compared to the WT mouse leptin [6]: 0.9 fold

B8: recombinant mouse leptin mutein H15 (D23G, L68M, S97F, S132Y), agonist (ligand)
chain: B3 chain with A40L, A41D, A42F, L69M, S98F, S133Y
notes: mature
fold increase in affinity as compared to the WT mouse leptin [7]: 9.7 fold

B9: mouse leptin antagonist H22 (T12I + L39A/D40A/F41A) (ligand)
chain: B3 chain with T13I, G24D
notes: mature; also called H22 (antagonist)
fold increase in affinity as compared to the WT mouse leptin antagonist [7]: 11.2 fold

B10: mouse leptin antagonist D23W/L39A/D40A/F41A (ligand)
chain: B3 chain with G24W
notes: mature
fold increase in affinity as compared to the WT mouse leptin antagonist [5]: 36 fold
BAF/3 bioassay: fold increase in bioactivity as compared to the WT mouse leptin antagonist [6]: 4.2 fold

B11: pegylated mouse leptin antagonist (PEG-MLA) (ligand)
chain: B3 chain with G24D
modifications: pegylated (method previously described for MLA; 20 kDa PEG, site not restated here)
notes: mature; also called pegylated-MLA
fold reduction in affinity by pegylation, as compared to MLA [8]: 6.3 fold

B12: mouse leptin antagonist H15 (D23G, L68M, S97F, S132Y + L39A/D40A/F41A) (ligand)
chain: B3 chain with L69M, S98F, S133Y
notes: mature; also called H15 (antagonist)
fold increase in affinity as compared to the WT mouse leptin antagonist [7]: 12.4 fold

B13: recombinant mouse leptin mutein H19 (D23G, T37A, G44D), agonist (ligand)
chain: B3 chain with T38A, A40L, A41D, A42F, G45D
notes: mature
fold increase in affinity as compared to the WT mouse leptin [7]: 10.4 fold
BAF/3 bioassay: fold increase in bioactivity as compared to the WT mouse leptin [6]: 0.9 fold
Luciferase bioassay: fold increase in bioactivity as compared to the WT mouse leptin [6]: 1.5 fold

B14: mouse leptin antagonist D23R/L39A/D40A/F41A (ligand)
chain: B3 chain with G24R
notes: mature; also called D23R MLA
fold increase in affinity as compared to the WT mouse leptin antagonist [5]: 51 fold
BAF/3 bioassay: fold increase in bioactivity as compared to the WT mouse leptin antagonist [6]: 8.6 fold

B15: recombinant mouse leptin mutein H22 (T12I), agonist (ligand)
chain: B3 chain with T13I, G24D, A40L, A41D, A42F
notes: mature
fold increase in affinity as compared to the WT mouse leptin [7]: 11.7 fold

B16: mouse leptin antagonist D23H/L39A/D40A/F41A (ligand)
chain: B3 chain with G24H
notes: mature; also called H30 (antagonist); D23H MLA
fold increase in affinity as compared to the WT mouse leptin antagonist [7]: 34 fold
fold increase in affinity as compared to the WT mouse leptin antagonist [5]: 34 fold
BAF/3 bioassay: fold increase in bioactivity as compared to the WT mouse leptin antagonist [6]: 5 fold
Luciferase bioassay: fold increase in bioactivity as compared to the WT mouse leptin antagonist [6]: 5.7 fold

B17: mouse leptin antagonist D23F/L39A/D40A/F41A (ligand)
chain: B3 chain with G24F
notes: mature
fold increase in affinity as compared to the WT mouse leptin antagonist [5]: 28 fold
BAF/3 bioassay: fold increase in bioactivity as compared to the WT mouse leptin antagonist [6]: 3.7 fold

B18: mouse leptin antagonist D23A/L39A/D40A/F41A (ligand)
chain: B3 chain with G24A
notes: mature
fold increase in affinity as compared to the WT mouse leptin antagonist [5]: 21 fold
BAF/3 bioassay: fold increase in bioactivity as compared to the WT mouse leptin antagonist [6]: 3.3 fold

B19: mouse leptin antagonist H19 (D23G, T37A, G44D + L39A/D40A/F41A) (ligand)
chain: B3 chain with T38A, G45D
notes: mature; also called H19 (antagonist)
fold increase in affinity as compared to the WT mouse leptin antagonist [7]: 6.1 fold

B20: recombinant mouse leptin mutein H12 (S97Y), agonist (ligand)
chain: B3 chain with G24D, A40L, A41D, A42F, S98Y
notes: mature
fold increase in affinity as compared to the WT mouse leptin [7]: 1.5 fold

B21: mouse leptin antagonist H12 (S97Y + L39A/D40A/F41A) (ligand)
chain: B3 chain with G24D, S98Y
notes: mature; also called H12 (antagonist)
fold increase in affinity as compared to the WT mouse leptin antagonist [7]: 1.4 fold

B22: pegylated superactive mouse leptin antagonist (PEG-SMLA) (ligand)
chain: VPIQKVQDDTKTLIKTLVTRINLISHTQSVSAKQRVTGAAAIPGLHPILSLSKMDQTLAVYQQVLTSLPSQNVLQIANDLENLRDLLHLLAFSKSCSLPQTSGLQKPESLDGVLEASLYSTEVVALSRLQGSLQDILQQVDLSPGC
modifications: mPEG-propionyl-ALD 20 kDa, preferentially on the N-terminal amino group (85% monopegylated, ~9% double pegylated)
notes: also called pegylated SMLA; superANT
fold reduction in affinity as compared to the non-pegylated SMLA [9]: 6.2 fold

B23: yeast-displayed mouse leptin clone H30 (D23H) (ligand, UniProt P41160 22-167, looked up, not shown: large carriers; small tags and cut ends)
chain: B22 chain with L17I, L23H, A39L, A40D, A41F, V140L, L142V, G145E
notes: mature
Bmax [10]: 847 MFI
Kd [10]: 59.5 nM
Bmax [11]: 741 MFI
Kd [11]: 40.9 nM

B24: superactive mouse leptin antagonist (SMLA), D23L/L39A/D40A/F41A mouse leptin (ligand)
chain: B22 chain
notes: also called D23L MLA; super active MLA
fold increase in affinity as compared to the WT mouse leptin antagonist [5]: 64 fold
